# Data reported in patent US20240209106A1 (BEIGENE SWITZERLAND, published 2024).
# What was measured:
# [1] = molecular target: T1, full-length human CD137 (huCD137) (human, UniProt Q07011 24-255); assay: flow cytometry on Hut78/huCD137 cells
# T1 construct: On transduced Hut78 cells (Hut78/huCD137), transiently on HEK293 cells, or natively on PBMC/T cells; also called TNFRSF9; 4-1BB
# human CD137 ECD-mIgG2a = human CD137 ECD-mIgG2a (human); assay: SPR, antibody captured on anti-human Fc surface; analyte taken as human CD137 ECD-mIgG2a
# Chain of human CD137 ECD-mIgG2a (human) (chain, as listed by the source limits assumed): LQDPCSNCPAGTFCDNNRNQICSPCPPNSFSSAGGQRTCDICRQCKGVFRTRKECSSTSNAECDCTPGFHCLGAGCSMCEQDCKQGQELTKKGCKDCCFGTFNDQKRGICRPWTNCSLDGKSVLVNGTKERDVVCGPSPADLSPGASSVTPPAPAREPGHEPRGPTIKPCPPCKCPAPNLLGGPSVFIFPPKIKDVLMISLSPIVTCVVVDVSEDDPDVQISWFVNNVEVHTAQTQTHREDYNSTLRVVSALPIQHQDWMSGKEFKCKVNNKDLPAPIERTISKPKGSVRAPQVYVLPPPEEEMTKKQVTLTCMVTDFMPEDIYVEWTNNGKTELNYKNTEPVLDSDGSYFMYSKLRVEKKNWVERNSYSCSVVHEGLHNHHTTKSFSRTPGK
# T1 sequence (Q07011 24-255 limits assumed): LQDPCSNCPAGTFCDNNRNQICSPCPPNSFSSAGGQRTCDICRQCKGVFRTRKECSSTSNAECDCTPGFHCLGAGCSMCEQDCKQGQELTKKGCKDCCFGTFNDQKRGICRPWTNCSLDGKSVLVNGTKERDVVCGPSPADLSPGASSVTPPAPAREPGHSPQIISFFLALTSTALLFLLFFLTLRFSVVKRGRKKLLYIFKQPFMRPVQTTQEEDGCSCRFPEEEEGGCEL
EC50 (read off the curve) [1],Kd (human CD137 ECD-mIgG2a),koff (human CD137 ECD-mIgG2a),kon (human CD137 ECD-mIgG2a),Binder
~2 µg/mL,646 nM,0.00574 s⁻¹,8890 M⁻¹ s⁻¹,"A-CD137×CEA-M5 (bispecific antibody, V35M as printed) heavy: QVQLVQSGAEVKKPGASVKVSCKASGYIFTSYYLHWVRQAPGQGLEWIGYINPQTGKTSYAQKFQGRVTMTRDTSTSTVYMELSSLRSEDTAVYYCAREYGNYNYPLDYWGQGTLVTVSSASTKGPSVFPLAPSSKSTSGGTAALGCLVKDYFPEPVTVSWNSGALTSGVHTFPAVLQSSGLYSLSSVVTVPSSSLGTQTYICNVNHKPSNTKVDKKVEPKSCDKTHTCPPCPAPPAAGPSVFLFPPKPKDTLMISRTPEVTCVVVDVSHEDPEVKFNWYVDGVEVHNAKTKPREEQYNSTYRVVSVLTVLHQDWLNGKEYKCKVSNKALAAPIEKTISKAKGQPREPQVYTLPPSREEMTKNQVSLTCLVKGFYPSDIAVEWESNGQPENNYKTTPPVLDSDGSFFLYSKLTVDKSRWQQGNVFSCSVMHEALHNHYTQKSLSLSPGKGGGGSEVQLLESGGGLVQPGGSLRLSCAASGFTLSAEDMGWVRQAPGKGLEWVSAILDFGGSTYYADSVKGRFTISRDNAKNTLYLQMSSLRAEDTAVYYCARVVYHAGGGVTFDYWGQGTLVTVSS light: DIQMTQSPSSLSASVGDRVTITCRASENQYGYLAWYQQKPGKVPKLLIYNYKNLVEGVPSRFSGSGSGTDFTLTISSLQPEDVATYYCQHHLGTPYTFGQGTKVEIKRTVAAPSVFIFPPSDEQLKSGTASVVCLLNNFYPREAKVQWKVDNALQSGNSQESVTEQDSKDSTYSLSSTLTLSKADYEKHKVYACEVTHQGLSSPVTKSFNRGEC"
~2 µg/mL,767 nM,0.0114 s⁻¹,14800 M⁻¹ s⁻¹,"A-CD137×CEA-M6 (bispecific antibody, V35M as printed) heavy: QVQLVQSGAEVKKPGASVKVSCKASGYIFTSYYLHWVRQAPGQGLEWIGYINPQTGKTSYAQKFQGRVTMTRDTSTSTVYMELSSLRSEDTAVYYCAREYGNYNYPLDYWGQGTLVTVSSASTKGPSVFPLAPSSKSTSGGTAALGCLVKDYFPEPVTVSWNSGALTSGVHTFPAVLQSSGLYSLSSVVTVPSSSLGTQTYICNVNHKPSNTKVDKKVEPKSCDKTHTCPPCPAPPAAGPSVFLFPPKPKDTLMISRTPEVTCVVVDVSHEDPEVKFNWYVDGVEVHNAKTKPREEQYNSTYRVVSVLTVLHQDWLNGKEYKCKVSNKALAAPIEKTISKAKGQPREPQVYTLPPSREEMTKNQVSLTCLVKGFYPSDIAVEWESNGQPENNYKTTPPVLDSDGSFFLYSKLTVDKSRWQQGNVFSCSVMHEALHNHYTQKSLSLSPGKGGGGSEVQLLESGGGLVQPGGSLRLSCAASGRTLSAEDMGWVRQAPGKGLEWVSAILDFGGSTYYADSVKGRFTISRDNAKNTLYLQMSSLRAEDTAVYYCARVVYHAGGGVTFDYWGQGTLVTVSS light: DIQMTQSPSSLSASVGDRVTITCRASENQYGYLAWYQQKPGKVPKLLIYNYKNLVEGVPSRFSGSGSGTDFTLTISSLQPEDVATYYCQHHLGTPYTFGQGTKVEIKRTVAAPSVFIFPPSDEQLKSGTASVVCLLNNFYPREAKVQWKVDNALQSGNSQESVTEQDSKDSTYSLSSTLTLSKADYEKHKVYACEVTHQGLSSPVTKSFNRGEC"
